Biological target: the molecule itself
Experiment: SEC; Superose 6 10/300 column in PBS/Az, 0.3 ml/min, A280 monitored; self-association (mixture of oligomers)

Protein	binding result
wild type clusterin purified from human plasma (natural protein, glycosylated | glycosylated, clusterin beta-chain, human; joined to the alpha-chain by 5 disulfide bonds; clusterin alpha-chain, human; joined to the beta-chain by 5 disulfide bonds; Disulphide-bonded alpha-beta heterodimer with heterogeneous glycosylation, from pooled donors; also called wtCLU; human plasma clusterin) chain 1: DQTVSDNELQEMSNQGSKYVNKEIQNAVNGVKQIKTLIEKTNEERKTLLSNLEEAKKKKEDALNETRESETKLKELPGVCNETMMALWEECKPCLKQTCMKFYARVCRSGSGLVGRQLEEFLNQSSPFYFWMNGDRIDSLLENDRQQTHMLDVMQDHFSRASSIIDELFQDRFFTREPQDTYHYLPFSLPHRRPHFFFPKSRIVR chain 2: SLMPFSPYEPLNFHAMFQPFLEMIHEAQQAMDIHFHSPAFQHPPTEFIREGDDDRTVCREIRHNSTGCLRMKDQCDKCREILSVDCSTNNPSQAKLRRELDESLQVAERLTRKYNELLKSYQWKMLNTSSLLEQLNEQFNWVSRLANLTQGEDQYYLRVTTVASHTSDSDVPSGVTEVVVKLFDSDPITVTVPVEVSRKNPKFMETVAEKALQEYRKKHREE	binds
mammalian cell-expressed recombinant clusterin secreted by stably transfected HEK293 cells (natural protein, human, glycosylated | glycosylated, clusterin beta-chain, human, from human CLU cDNA in pRcCMV; secreted and cleaved into alpha- and beta-chains; clusterin alpha-chain, human, from human CLU cDNA in pRcCMV; Disulphide-bonded alpha-beta heterodimer, less glycosylated than plasma clusterin; No tag is stated; also called m-rCLU; rCLU) chain 1: DQTVSDNELQEMSNQGSKYVNKEIQNAVNGVKQIKTLIEKTNEERKTLLSNLEEAKKKKEDALNETRESETKLKELPGVCNETMMALWEECKPCLKQTCMKFYARVCRSGSGLVGRQLEEFLNQSSPFYFWMNGDRIDSLLENDRQQTHMLDVMQDHFSRASSIIDELFQDRFFTREPQDTYHYLPFSLPHRRPHFFFPKSRIVR chain 2: SLMPFSPYEPLNFHAMFQPFLEMIHEAQQAMDIHFHSPAFQHPPTEFIREGDDDRTVCREIRHNSTGCLRMKDQCDKCREILSVDCSTNNPSQAKLRRELDESLQVAERLTRKYNELLKSYQWKMLNTSSLLEQLNEQFNWVSRLANLTQGEDQYYLRVTTVASHTSDSDVPSGVTEVVVKLFDSDPITVTVPVEVSRKNPKFMETVAEKALQEYRKKHREE	binds
